According to US20120184016A1, “NOVEL PROTEIN AND GENE THAT CODES THEREFOR” (priority 2009, published 2012):

Assays:
[1] = Enzyme activity of the sample after each purification step; format: biochemical
Description: The sialyltransferase activity may be measured by a known method, for example, the process described in J. Biochem., 120, 104-110 (1996) (which is hereby incorporated by reference in its entirety). For example, the enzyme activity can be evaluated by performing an enzyme reaction using CMP-NeuAc (N-acetylneuraminic acid) as a sugar donor substrate and lactose as a sugar acceptor substrate and evaluating the amount of the reaction product, i.e., sialyllactose. Note that one enzyme unit (1 U) of sialyltransferase is defined as the amount of the enzyme required to transfer one micromole of sialic acid per minute.
Sialyltransferase activity was measured by a method described in J. Biochem., 120, 104-110 (1996) (which is hereby incorporated by reference in its entirety). Specifically, the enzyme reaction was performed using a reaction solution (30 μL) containing CMP-NeuAc (70 nmol, containing about 20000 cpm CMP-NeuAc in which NeuAc was labeled with ^14C; NeuAc represents N-acetylneuraminic acid) as a sugar donor substrate, lactose (1.25 μmol) as a sugar acceptor substrate, NaCl added to give a concentration of 0.5 M, and the enzyme prepared as described above. The enzyme reaction was carried out at 25° C. for about 10 to 180 minutes. After completion of the reaction, 1.97 mL of 5 mM phosphate buffer (pH 6.8) was added to the reaction solution, which was then applied to a Dowex 1×8 (PO4^3− form, 0.2×2 cm, manufactured by Bio-Rad Laboratories, Inc.) column. The radioactivity contained in the reaction product contained in the eluate (0 to 2 mL) from this column, that is, sialyllactose, was measured to calculate the enzyme activity. One enzyme unit (1 U) is defined as the amount of enzyme required to transfer one micromole of sialic acid per minute.
The enzyme activity was measured by the method described in J. Biochem., 120, 104-110 (1996), as in Example 1. The amount of the protein was measured using a Coomassie Protein Assay Reagent (manufactured by Pierce) in accordance with the instruction manual attached thereto. One enzyme unit (1 U) was defined as the amount of enzyme required to transfer one micromole of sialic acid per minute.

[2] = Optimum pH and optimum temperature for neuraminidase activity; format: biochemical; conditions: purified enzyme
Experimental: The optimum pH and the optimum temperature for neuraminidase activity of the recombinant β-galactoside-α2,6-sialyltransferase SHIZ119-N1C0 derived from the JT-SHIZ-119 strain were investigated using the purified enzyme prepared in Example 3.
The enzyme activity at various pH levels was measured at 35° C. with the buffer used in Example 4.
The neuraminidase activity was measured at every increment of 5° C. starting from 5° C. up to 50° C. using cacodylate buffer (pH 6.0).

[3] = test system: JT-SHIZ-119-derived recombinant β-galactoside-α2,6-sialyltransferase N1C0 (neuraminidase activity); test: Substrate specificity of neuraminidase activity with PA-sugar chains, HPLC; format: biochemical, Photobacterium leiognathi strain JT-SHIZ-119; conditions: PA-sugar chains with α2,3-, α2,6- or α2,8-linked sialic acid; 30° C. for 18 hours
Experimental: The substrate specificity of neuraminidase, that is, the linkage mode of sialic acid to a sugar chain that is cleaved by the neuraminidase can be determined by, but not limited to, a method using a pyridylaminated sugar chain. More specifically, the enzyme reaction by neuraminidase is performed using PA sugar chains in which sialic acid is linked by α2,3-linkage, α2,6-linkage, or α2,8-linkage (for example, pyridylaminated sugar chains such as PA-Sugar Chain 029, PA-Sugar Chain 023, and PA-Sugar Chain 034 available from Takara Bio Inc.). The reaction product is analyzed by high performance liquid chromatography, and the amount of sialic acid that was cleaved is calculated from the retention time and peak area of the reaction product.
To reveal the specificity of the neuraminidase activity of the JT-SHIZ-119-derived recombinant β-galactoside-α2,6-sialyltransferase N1C0, reactions using a PA-sugar chain shown in Table 4, to which sialic acid is linked via α2,3-, α2,6-, or α2,8-linkage (PA-Sugar Chain 029, PA-Sugar Chain 023, or PA-Sugar Chain 034, manufactured by Takara Bio Inc.) as a substrate were performed.
To a purified enzyme solution of the JT-SHIZ-119-derived recombinant β-galactoside-α2,6-sialyltransferase N1C0 (equivalent to 0.6 U as sialyltransferase activity), 1.5 μL of a 10 pmol/μL PA-sugar chain was added, followed by reaction at 30° C. for 18 hours. After completion of the reaction, the reaction solution was treated at 100° C. for 2 minutes to inactivate the enzyme, followed by HPLC to analyze the reaction product. In the case of using PA-Sugar Chain 023 as the substrate, the pyridylaminated sugar chain was eluted and analyzed under the same conditions as those in Example 1. In the case of using PA-Sugar Chain 029 or PA-Sugar Chain 034 as the substrate, the elution was performed using eluent A (100 mM acetate-triethylamine, pH 5.0) and eluent B (100 mM acetate-triethylamine containing 0.5% n-butanol, pH 5.0) with a linear gradient of 0 to 100% eluent B (0 to 35 min), 100% eluent B (35 to 50 min), and then a linear gradient of 100% to 30% eluent B (51 to 75 min). The analysis was performed under the conditions of Example 1. FIGS. 3-2 to 3-8 show the results.

B1: SHIZ119-N1C0 (protein)
chain: MCNDNQNTVDVVVSTVNDNVIENNTYQVKPIDTPTTFDSYSWIQTCGTPILKDDEKYSLSFDFVAPELDQDEKFCFEFTGDVDGKRYVTQTNLTVVAPTLEVYVDHASLPSLQQLMKIIQQKNEYSQNERFISWGRIGLTEDNAEKLNAHIYPLAGNNTSQELVDAVIDYADSKNRLNLELNTNTAHSFPNLAPILRIISSKSNILISNINLYDDGSAEYVNLYNWKDTEDKSVKLSDSFLVLKDYFNGISSEKPSGIYGRYNWHQLYNTSYYFLRKDYLTVEPQLHDLREYLGGSLKQMSWDGFSQLSKGDKELFLNIVGFDQEKLQQEYQQSELPNFVFTGTTTWAGGETKEYYAQQQVNVVNNAINETSPYYLGREHDLFFKGHPRGGIINDIILGSFNNMIDIPAKVSFEVLMMTGMLPDTVGGIASSLYFSIPAEKVSFIVFTSSDTITDREDALKSPLVQVMMTLGIVKEKDVLFWSDLPDCSSGVCIAQY
modifications: beta-galacoside-alpha-2,6-sialyltransferase from phorobacterium leiognathi (without signal peptide)
In the case of B1, the Specific activity ([1]; sample: Crude enzyme solution) is reported as 5.5 U/mg, the Specific activity ([1]; sample: HAP) is reported as 82.9 U/mg and the Specific activity ([1]; sample: Mono-Q) is reported as 36.2 U/mg. The Specific activity ([1]; sample: Q-sepharose) was 35.6 U/mg, the “pH at which neuraminidase activity is the highest (optimum pH)” value ([2]; 35° C., FIG. 4-1) was 6.0 and the “temperature at which neuraminidase activity is the highest (optimum temperature)” value ([2]; cacodylate buffer (pH 6.0), 5° C. up to 50° C., FIG. 4-2) was 35 °C. For the same molecule, the “specificity of neuraminidase activity (linkage mode)” value [3] was “specific to sialic acid of α2,6-linkage”.
